Starred links: 1 amine or outer side, 2 acyl side, 3 side chain; linkers in the order of their positions; H or OH if unused. Non-standard residues stand in square brackets, D forms with d. *: point of attachment. Imidazole4carbonyl = O=C(c1cnc[nH]1)*; 4Pal = N[C@@H](Cc1ccncc1)C(=O)O; Cha = N[C@@H](CC1CCCCC1)C(=O)O; Cit = NC(=O)NCCC[C@H](N)C(=O)O; Isonicotinoyl = O=C(c1ccncc1)*; Suc = O=C(CCC(=O)[*:2])[*:1]; Nle = CCCC[C@H](N)C(=O)O; Aib = CC(C)(N)C(=O)O; βAla = NCCC(=O)O
B1: 4-Pyridinecarbonyl-[Glu23, D-Pro24, Pya(4)26, Cha27,36, Aib28,31, Lys30]-PYY(23-36) (peptide)
peptide: Isonicotinoyl-E[dP]R[4Pal][Cha][Aib]NK[Aib]TRQR[Cha]-NH2
SMILES: C[C@@H](O)[C@H](NC(=O)C(C)(C)NC(=O)[C@H](CCCCN)NC(=O)[C@H](CC(N)=O)NC(=O)C(C)(C)NC(=O)[C@H](CC1CCCCC1)NC(=O)[C@H](Cc1ccncc1)NC(=O)[C@H](CCCNC(=N)N)NC(=O)[C@H]1CCCN1C(=O)[C@H](CCC(=O)O)NC(=O)c1ccncc1)C(=O)N[C@@H](CCCNC(=N)N)C(=O)N[C@@H](CCC(N)=O)C(=O)N[C@@H](CCCNC(=N)N)C(=O)N[C@@H](CC1CCCCC1)C(N)=O
B2: 4-Imidazolecarbonyl-[Glu23, D-Pro24, Pya(4)26, Cha27,36, Aib28,31, Lys30]-PYY(23-36) (peptide)
peptide: Imidazole4carbonyl-E[dP]R[4Pal][Cha][Aib]NK[Aib]TRQR[Cha]-NH2
SMILES: C[C@@H](O)[C@H](NC(=O)C(C)(C)NC(=O)[C@H](CCCCN)NC(=O)[C@H](CC(N)=O)NC(=O)C(C)(C)NC(=O)[C@H](CC1CCCCC1)NC(=O)[C@H](Cc1ccncc1)NC(=O)[C@H](CCCNC(=N)N)NC(=O)[C@H]1CCCN1C(=O)[C@H](CCC(=O)O)NC(=O)c1cnc[nH]1)C(=O)N[C@@H](CCCNC(=N)N)C(=O)N[C@@H](CCC(N)=O)C(=O)N[C@@H](CCCNC(=N)N)C(=O)N[C@@H](CC1CCCCC1)C(N)=O
B3: 3-Carboxypropionyl-[Gln23, D-Pro24, Pya(4)26, Cha27,36, Aib28,31, Lys30]-PYY(23-36) (peptide)
peptide: Suc-Q[dP]R[4Pal][Cha][Aib]NK[Aib]TRQR[Cha]-NH2
SMILES: C[C@@H](O)[C@H](NC(=O)C(C)(C)NC(=O)[C@H](CCCCN)NC(=O)[C@H](CC(N)=O)NC(=O)C(C)(C)NC(=O)[C@H](CC1CCCCC1)NC(=O)[C@H](Cc1ccncc1)NC(=O)[C@H](CCCNC(=N)N)NC(=O)[C@H]1CCCN1C(=O)[C@H](CCC(N)=O)NC(=O)CCC(=O)O)C(=O)N[C@@H](CCCNC(=N)N)C(=O)N[C@@H](CCC(N)=O)C(=O)N[C@@H](CCCNC(=N)N)C(=O)N[C@@H](CC1CCCCC1)C(N)=O
B4: Ac-[D-Pro24, Pya(4)26, Cha27,36, Aib28,31, Lys30]-PYY(22-36) (peptide)
peptide: Ac-AS[dP]R[4Pal][Cha][Aib]NK[Aib]TRQR[Cha]-NH2
SMILES: CC(=O)N[C@@H](C)C(=O)N[C@@H](CO)C(=O)N1CCC[C@@H]1C(=O)N[C@@H](CCCNC(=N)N)C(=O)N[C@@H](Cc1ccncc1)C(=O)N[C@@H](CC1CCCCC1)C(=O)NC(C)(C)C(=O)N[C@@H](CC(N)=O)C(=O)N[C@@H](CCCCN)C(=O)NC(C)(C)C(=O)N[C@H](C(=O)N[C@@H](CCCNC(=N)N)C(=O)N[C@@H](CCC(N)=O)C(=O)N[C@@H](CCCNC(=N)N)C(=O)N[C@@H](CC1CCCCC1)C(N)=O)[C@@H](C)O
B5: Ac-[Glu23, D-Pro24, Pya(4)26, Cha27,36, Aib28,31, Lys30]-PYY(22-36) (peptide)
peptide: Ac-AE[dP]R[4Pal][Cha][Aib]NK[Aib]TRQR[Cha]-NH2
SMILES: CC(=O)N[C@@H](C)C(=O)N[C@@H](CCC(=O)O)C(=O)N1CCC[C@@H]1C(=O)N[C@@H](CCCNC(=N)N)C(=O)N[C@@H](Cc1ccncc1)C(=O)N[C@@H](CC1CCCCC1)C(=O)NC(C)(C)C(=O)N[C@@H](CC(N)=O)C(=O)N[C@@H](CCCCN)C(=O)NC(C)(C)C(=O)N[C@H](C(=O)N[C@@H](CCCNC(=N)N)C(=O)N[C@@H](CCC(N)=O)C(=O)N[C@@H](CCCNC(=N)N)C(=O)N[C@@H](CC1CCCCC1)C(N)=O)[C@@H](C)O
B6: Ac-[βAla24, Pya(4)26, Cha27,36, Aib28,31, Lys30]-PYY(23-36) (peptide)
peptide: Ac-S[βAla]R[4Pal][Cha][Aib]NK[Aib]TRQR[Cha]-NH2
SMILES: CC(=O)N[C@@H](CO)C(=O)NCCC(=O)N[C@@H](CCCNC(=N)N)C(=O)N[C@@H](Cc1ccncc1)C(=O)N[C@@H](CC1CCCCC1)C(=O)NC(C)(C)C(=O)N[C@@H](CC(N)=O)C(=O)N[C@@H](CCCCN)C(=O)NC(C)(C)C(=O)N[C@H](C(=O)N[C@@H](CCCNC(=N)N)C(=O)N[C@@H](CCC(N)=O)C(=O)N[C@@H](CCCNC(=N)N)C(=O)N[C@@H](CC1CCCCC1)C(N)=O)[C@@H](C)O
B7: Ac-[Glu23, βAla24, Pya(4)26, Cha27,36, Aib28,31, Lys30]-PYY(23-36) (peptide)
peptide: Ac-E[βAla]R[4Pal][Cha][Aib]NK[Aib]TRQR[Cha]-NH2
SMILES: CC(=O)N[C@@H](CCC(=O)O)C(=O)NCCC(=O)N[C@@H](CCCNC(=N)N)C(=O)N[C@@H](Cc1ccncc1)C(=O)N[C@@H](CC1CCCCC1)C(=O)NC(C)(C)C(=O)N[C@@H](CC(N)=O)C(=O)N[C@@H](CCCCN)C(=O)NC(C)(C)C(=O)N[C@H](C(=O)N[C@@H](CCCNC(=N)N)C(=O)N[C@@H](CCC(N)=O)C(=O)N[C@@H](CCCNC(=N)N)C(=O)N[C@@H](CC1CCCCC1)C(N)=O)[C@@H](C)O
B8: Ac-[D-Pro24, Nle25, Pya(4)26, Cha27,36, Aib28,31, Lys30]-PYY(23-36) (peptide)
peptide: Ac-S[dP][Nle][4Pal][Cha][Aib]NK[Aib]TRQR[Cha]-NH2
SMILES: CCCC[C@H](NC(=O)[C@H]1CCCN1C(=O)[C@H](CO)NC(C)=O)C(=O)N[C@@H](Cc1ccncc1)C(=O)N[C@@H](CC1CCCCC1)C(=O)NC(C)(C)C(=O)N[C@@H](CC(N)=O)C(=O)N[C@@H](CCCCN)C(=O)NC(C)(C)C(=O)N[C@H](C(=O)N[C@@H](CCCNC(=N)N)C(=O)N[C@@H](CCC(N)=O)C(=O)N[C@@H](CCCNC(=N)N)C(=O)N[C@@H](CC1CCCCC1)C(N)=O)[C@@H](C)O
B9: Ac-[D-Pro24, Cit25, Cha27,36, Aib28,31, Lys30]-PYY(23-36) (peptide)
peptide: Ac-S[dP][Cit]H[Cha][Aib]NK[Aib]TRQR[Cha]-NH2
SMILES: CC(=O)N[C@@H](CO)C(=O)N1CCC[C@@H]1C(=O)N[C@@H](CCCNC(N)=O)C(=O)N[C@@H](Cc1c[nH]cn1)C(=O)N[C@@H](CC1CCCCC1)C(=O)NC(C)(C)C(=O)N[C@@H](CC(N)=O)C(=O)N[C@@H](CCCCN)C(=O)NC(C)(C)C(=O)N[C@H](C(=O)N[C@@H](CCCNC(=N)N)C(=O)N[C@@H](CCC(N)=O)C(=O)N[C@@H](CCCNC(=N)N)C(=O)N[C@@H](CC1CCCCC1)C(N)=O)[C@@H](C)O
B10: Ac-[Glu23, D-Pro24, Nle25, Pya(4)26, Cha27,36, Aib28,31, Lys30]-PYY(23-36) (peptide)
peptide: Ac-E[dP][Nle][4Pal][Cha][Aib]NK[Aib]TRQR[Cha]-NH2
SMILES: CCCC[C@H](NC(=O)[C@H]1CCCN1C(=O)[C@H](CCC(=O)O)NC(C)=O)C(=O)N[C@@H](Cc1ccncc1)C(=O)N[C@@H](CC1CCCCC1)C(=O)NC(C)(C)C(=O)N[C@@H](CC(N)=O)C(=O)N[C@@H](CCCCN)C(=O)NC(C)(C)C(=O)N[C@H](C(=O)N[C@@H](CCCNC(=N)N)C(=O)N[C@@H](CCC(N)=O)C(=O)N[C@@H](CCCNC(=N)N)C(=O)N[C@@H](CC1CCCCC1)C(N)=O)[C@@H](C)O

What follows are binders tested against human Y2 receptor (human) (UniProt P49146) (assay: cell-based or functional assay).
Sequence of human Y2 receptor (human) (P49146 whole entry): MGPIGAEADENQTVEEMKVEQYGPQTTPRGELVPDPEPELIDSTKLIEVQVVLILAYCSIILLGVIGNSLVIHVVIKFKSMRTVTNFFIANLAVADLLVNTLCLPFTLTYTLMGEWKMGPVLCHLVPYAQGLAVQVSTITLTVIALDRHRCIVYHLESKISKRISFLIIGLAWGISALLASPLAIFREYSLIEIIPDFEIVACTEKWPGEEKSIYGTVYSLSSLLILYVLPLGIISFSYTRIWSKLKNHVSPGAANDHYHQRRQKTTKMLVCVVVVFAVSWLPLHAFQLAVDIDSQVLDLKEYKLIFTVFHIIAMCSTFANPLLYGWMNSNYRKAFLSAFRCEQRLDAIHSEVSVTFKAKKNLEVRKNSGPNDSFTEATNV

Binder | GBA EC50 Ratio ([35S]GTPγS binding) (EC50 compound/EC50 PYY(3-36))
B1 | 1.8
B2 | 1.3
B3 | 1.9
B4 | 1.7
B5 | 3.5
B6 | 1.1
B7 | 3.9
B8 | 2.4
B9 | 4.6
B10 | 6.9

These binders were tested against human Y2 receptor (human) (UniProt P49146) (assay: RBA: displacement of [125I]-PYY from hY2R/CHO membranes).

Binder | IC50 Ratio (IC50 compound/IC50 PYY(3-36))
B1 | 1.9
B2 | 1.3
B3 | 2
B4 | 2.3
B5 | 5.3
B6 | 1.9
B7 | 7.4
B8 | 3
B9 | 6.2
B10 | 7.5
